Test results published in article PMC8042448 (The Journal of Biological Chemistry, 2021).

B1: recombinant full-length human prion protein huPrP(23–230) (natural protein)
chain: not shown
notes: also called full-length huPrP
B2: C-terminally truncated human prion protein huPrP(23–144) (domain or fragment)
chain: KKRPKPGGWNTGGSRYPGQGSPGGNRYPPQGGGGWGQPHGGGWGQPHGGGWGQPHGGGWGQPHGGGWGQGGGTHSQWNKPSKPKTNMKHMAGAAAAGAVVGGLGGYMLGSAMSRPIIHFGSD
notes: also called N-terminal construct huPrP(23–144); huPrP(23–144)exc

Legend:
Settings in all cases: both partners purified
[1] = target: T1, amyloid β (1–42) oligomers (UniProt P05067 672-713); assay: […] (40–80 μM) […] (160–300 μM) in 30 mM Tris-HCl pH 7.4; […]
T1 construct: also called Aβ(1–42)_(oligo); Aβ_(oligo)

[2] = target: T1, amyloid β (1–42) oligomers; assay: co-sedimentation
[3] = target: T1, amyloid β (1–42) oligomers; assay: […]) in 30 mM Tris-HCl pH 7.4; […]

| Binder | binding result [1] | stoichiometry N [2] | stoichiometry N [3] |
| --- | --- | --- | --- |
| B1 | binds |  |  |
| B2 |  | 3.7 | 8.6 |
